# Measurements published in patent US20250188180A1 (BIOINTRON BIOLOGICAL, published 2025).
# Residue numbers refer to the chain shown, from its start.
# B1: ANb24-Alpaca1-4M-2SP-317 (Fc fusion)
# chain: QLQLVESGGDLVQPGGSLRLSCTASGHTLEYYAIGWFRQAPGKEREGVSCIIGSGGSTRYFDSVLGRFTISRDNAKNTVFLQMNSLKPEDTAVYYCAKVRLLSRLCVPSSDFDSWGQGTQVTVSS
# notes: also called ANb24-A1-4M-2SP-317; ANb24-Alpacal-4M-2SP-317; not shown: Fc joined to the VHH by overlap PCR
# B2: ANb24-Alpaca1-4M-2SP-335 (Fc fusion)
# chain: QPQFVESGGGLVQPGGTLRLSCAASGFTFEYYTIGWFRQTPGKEREGVSCITAAGVPRNADSAKGRFTISRDNAKNMVYLQMNNLKPEDTAVYYCAQARLLSTSCAPMNDYWGQGTQVTVSS
# notes: also called ANb24-A1-4M-2SP-335; ANb24-Alpacal-4M-2SP-335; not shown: Fc joined to the VHH by overlap PCR
# B3: ANb24-Alpaca1-4M-2SP-149 (Fc fusion)
# chain: EVQLVESGGGLVQPGGSLRLSCTASGSTLDIYAIGWFRQAPGKEREGVSCITGSGSSTRYAHSVTGRFTISRDNAKNTVFLQMNSLKPEDTAVYYCAKARLLSRLCVPSPDFESWGQGTQVTVSS
# notes: also called ANb24-A1-4M-2SP-149; ANb24-Alpacal-4M-2SP-149; not shown: Fc joined to the VHH by overlap PCR
# B4: ANb24-Alpaca1-4M-2SP-180 (Fc fusion)
# chain: B3 chain with E1Q, V2P, L4F, H62D, E89D, R104M
# notes: also called ANb24-A1-4M-2SP-180; ANb24-Abpacal-4M-2SP-180; not shown: Fc joined to the VHH by overlap PCR
# B5: ANb24-Alpaca1-4M-2SP-273 (Fc fusion)
# chain: EVQLVESGGGLVQPGGSLRLSCAASGSTLDYYAIGWFRQAPGKEREGVSCISGSGGSTRYADSVTGRFTISKDSAKNTVYLEMNSLKPEDTAVYYCARARLLSRLCVPSADFDSWGQGTQVTVSS
# notes: also called ANb24-A1-4M-2SP-273; ANb24-Alpacal-4M-2SP-273; not shown: Fc joined to the VHH by overlap PCR
# B6: ANb24-Alpaca1-4M-2SP-175 (Fc fusion)
# chain: QPHFVESGGGLVQPGGSLRLSCVASGFTFEYVPIGWFRQAPGKEREGVSCITPTGITRNADSVKGRFTISRDNAKNTVYLQLNSLKPEDTAVYYCAKARLLSTSCVQTSDARGQGTQVTVSS
# notes: also called ANb24-A1-4M-2SP-175; ANb24-Alpacal-4M-2SP-175; not shown: Fc joined to the VHH by overlap PCR
# B7: ANb24-Alpaca1-4M-2SP-226 (Fc fusion)
# chain: QLQLVESGGGLVQPGGTLRLSCAASGVTLEYYSIGWFRQSPGKEREGVSCISGGGVQRYADSAEGRFAISRDNAKNMVYLQMNNLEPEDTAVYYCARARLLMRGCAPMDNYWGQGTQVTVSS
# notes: also called ANb24-A1-4M-2SP-226; ANb24-Alpacal-4M-2SP-226; not shown: Fc joined to the VHH by overlap PCR
# B8: ANb24-Alpaca1-4M-2SP-332 (Fc fusion)
# chain: QVQLVESGGGLVQPGGSLRLSCAASGSTLASYAIGWFRQAPGKEREGISCISGSGGSTRAADSVQGRFTISRDNAKNTVSLQMNSLKPEDTAIYYCAKVRLLSRGCVPSPDFDSWGQGTQVTVSS
# notes: also called ANb24-A1-4M-2SP-332; ANb24-Alpacal-4M-2SP-332; not shown: Fc joined to the VHH by overlap PCR
# Target: CD40 antigen on cells (cell-based binding assay) (UniProt P25942)
# Assay: cell-based binding assay on CD40 cells
# CD40 antigen on cells (cell-based binding assay) (UniProt P25942), sequence (P25942 21-277 limits assumed): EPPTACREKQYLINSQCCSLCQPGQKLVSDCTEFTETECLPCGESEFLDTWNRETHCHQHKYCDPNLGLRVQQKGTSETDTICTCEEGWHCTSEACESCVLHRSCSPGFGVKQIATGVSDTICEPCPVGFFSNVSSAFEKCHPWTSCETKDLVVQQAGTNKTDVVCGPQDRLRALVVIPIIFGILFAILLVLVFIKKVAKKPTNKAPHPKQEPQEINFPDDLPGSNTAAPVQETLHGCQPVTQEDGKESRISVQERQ
row,Molecule,X Mean
1,anti-CD40/APX005M (control antibody),10700

# Target: T1, CD40 antigen on cells (cell-based binding assay) (UniProt P25942 21-277, limits assumed)
# T1 construct: whole, on cells; the cells are not described
# Assay: cell-based binding assay, 293F culture supernatant
# T1 sequence (P25942 21-277 limits assumed): as above
row,Molecule,X Mean
1,B1,8970
2,B2,8960
3,B3,11500
4,B4,10800
5,B5,4420
6,B6,10500
7,B7,10700
8,B8,4080
